Assay results as given in publication PMC5014153, “Overexpression of an Arabidopsis cysteine-rich receptor-like protein kinase, CRK5, enhances abscisic acid sensitivity and confers drought tolerance”.
Numbering of substitutions follows the chain as printed.

T1: 6xHis-WRKY40 (Arabidopsis thaliana, UniProt Q9SAH7 1-302)
T1 sequence: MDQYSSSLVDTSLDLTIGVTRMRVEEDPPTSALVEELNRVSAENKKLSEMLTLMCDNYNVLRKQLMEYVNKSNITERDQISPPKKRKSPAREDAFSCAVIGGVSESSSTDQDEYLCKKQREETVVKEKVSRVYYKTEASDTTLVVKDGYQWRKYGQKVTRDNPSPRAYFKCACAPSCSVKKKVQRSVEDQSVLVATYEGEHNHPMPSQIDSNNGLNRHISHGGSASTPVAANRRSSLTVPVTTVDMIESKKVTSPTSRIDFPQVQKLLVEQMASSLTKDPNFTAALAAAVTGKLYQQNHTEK

B1: ProCRK5-1 (dsDNA)
DNA 1: TTGATGTTACTCGTCTAGTTGACCTTGACTTGCAAGATATTGTATTATTTTACAAAAACCAAAATTTGACTGGCTTGGCT
DNA 2: AGCCAAGCCAGTCAAATTTTGGTTTTTGTAAAATAATACAATATCTTGCAAGTCAAGGTCAACTAGACGAGTAACATCAA
B2: ProCRK5-1 mW1 (dsDNA)
DNA 1: B1 DNA 1 with G68A, C70A
DNA 2: B1 DNA 2 with G11T, C13T

Legend:
Assay in all cases: EMSA; 25 mM Hepes pH 8.0, 40 mM KCl, 5 mM MgCl2, 1 mM DTT, 1 mM EDTA, 8% glycerol; 50 ng protein, 20 fmol probe; 30 min at 28 C; native PAGE
6xHis-WRKY60 = 6xHis-WRKY60 (Arabidopsis thaliana, UniProt Q9SK33 1-271); details: protein: recombinant, tags: N-terminal Trx, HRV 3C site (pET48b), label: 5' biotin on each strand, blunt
6xHis-WRKY18 = 6xHis-WRKY18 (Arabidopsis thaliana, UniProt Q9C5T4 1-310); details: protein: recombinant, tags: N-terminal Trx, HRV 3C site (pET48b), chain copies: 2, label: 5' biotin on each strand, blunt
6xHis-WRKY40 = target: T1, 6xHis-WRKY40; details: protein: recombinant, tags: N-terminal Trx, HRV 3C site (pET48b), label: 5' biotin on each strand, blunt

6xHis-WRKY18, sequence (Q9C5T4 whole entry): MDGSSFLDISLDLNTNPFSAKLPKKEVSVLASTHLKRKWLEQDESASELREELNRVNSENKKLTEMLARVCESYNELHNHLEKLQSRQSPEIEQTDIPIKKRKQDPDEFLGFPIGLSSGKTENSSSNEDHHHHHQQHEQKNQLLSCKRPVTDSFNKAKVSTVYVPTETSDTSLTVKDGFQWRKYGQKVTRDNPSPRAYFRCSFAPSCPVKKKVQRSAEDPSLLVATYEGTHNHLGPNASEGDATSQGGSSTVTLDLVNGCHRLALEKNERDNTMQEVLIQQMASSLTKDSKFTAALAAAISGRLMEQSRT
6xHis-WRKY60, sequence (Q9SK33 whole entry): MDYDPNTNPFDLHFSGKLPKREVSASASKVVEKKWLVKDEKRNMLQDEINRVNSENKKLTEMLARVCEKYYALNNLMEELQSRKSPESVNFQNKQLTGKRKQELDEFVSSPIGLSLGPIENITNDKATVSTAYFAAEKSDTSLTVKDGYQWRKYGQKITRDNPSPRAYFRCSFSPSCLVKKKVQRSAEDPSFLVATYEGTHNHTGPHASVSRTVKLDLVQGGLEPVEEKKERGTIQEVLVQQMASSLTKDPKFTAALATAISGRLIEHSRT

Row | Binder | binding result (6xHis-WRKY60) | binding result (6xHis-WRKY18) | binding result (6xHis-WRKY40)
1 | B1 | no binding | binds | binds
2 | B2 |  | binds | binds
